Results reported in publication PMC11443517.
pKd: −log10 of the molar value.

Legend:
[1] = biological target: eDEN1-FRET-D10N construct lacking the C163A mutation; experiment: FRET or BRET; intramolecular FRET of 50 nM sensor (ratio of emission at 475 nm to 525 nm, excitation 440 nm) titrated with free or precursor Nedd8, binding competes with the reporter interaction; PBS pH 7.4, 0.05% Brij-35, 0.2 mg/mL ovalbumin, 1 mM DTT; single-site fit
[2] = biological target: eDEN1-FRET-D10N with the Wp2 domain replaced by Wp1; experiment: as above
eDEN1-FRET-D10N = experiment: as above
eDEN1-FRET = experiment: as above
eDEN1-nanoBiT = experiment: split reporter (BiFC, NanoBiT); intramolecular split nanoluciferase of purified eDEN1-nanoBiT, luminescence at 450 nm falls on binding; titration with the ligand; PBS pH 7.4, 0.2 mg/mL ovalbumin, 1 mM DTT, no Brij-35, 70 uM furimazine, 25 C, 96-well plate; single-site fit

pKd [1] | pKd [2] | pKd (eDEN1-FRET-D10N) | pKd (eDEN1-FRET) | pKd (eDEN1-nanoBiT) | fold selectivity for free Nedd8 compared to precursor Nedd8 (eDEN1-FRET-D10N) [fold] | Substance
4.30 | 5.22 | 6.49 | 5.12 | 5.49 |  | free Nedd8 (from UniProt Q15843 1-76) (natural protein)
 |  |  |  | 3.57 | 444 | precursor Nedd8 (from UniProt Q15843 1-81) (natural protein)
